What was measured:
[1] = molecular target: T1, human TPBG-hFc (human, UniProt Q13641 32-355); assay: ELISA, coated human TPBG-hFc 1.0 ug/mL; control IgG 2 nM
T1 construct: also called immunogen A; hFc tagged TPBG protein; not shown: The human IgG Fc fragment of the pCpC vector (Invitrogen V044-50) and any linker to it
T1 sequence: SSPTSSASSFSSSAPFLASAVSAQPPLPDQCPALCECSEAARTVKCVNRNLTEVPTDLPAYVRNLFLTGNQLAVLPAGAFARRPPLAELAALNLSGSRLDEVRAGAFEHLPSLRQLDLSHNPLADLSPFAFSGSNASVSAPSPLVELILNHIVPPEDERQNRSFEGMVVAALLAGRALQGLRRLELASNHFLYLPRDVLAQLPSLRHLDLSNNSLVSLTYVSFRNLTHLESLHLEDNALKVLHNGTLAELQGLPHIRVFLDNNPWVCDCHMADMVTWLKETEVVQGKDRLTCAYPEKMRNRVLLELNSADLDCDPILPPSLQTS

[2] = molecular target: T2, human TPBG (full length, on cells) (human, UniProt Q13641 32-420); assay: FACS on CHO-k1-hTPBG 3A2F1 cells
T2 sequence (looked up): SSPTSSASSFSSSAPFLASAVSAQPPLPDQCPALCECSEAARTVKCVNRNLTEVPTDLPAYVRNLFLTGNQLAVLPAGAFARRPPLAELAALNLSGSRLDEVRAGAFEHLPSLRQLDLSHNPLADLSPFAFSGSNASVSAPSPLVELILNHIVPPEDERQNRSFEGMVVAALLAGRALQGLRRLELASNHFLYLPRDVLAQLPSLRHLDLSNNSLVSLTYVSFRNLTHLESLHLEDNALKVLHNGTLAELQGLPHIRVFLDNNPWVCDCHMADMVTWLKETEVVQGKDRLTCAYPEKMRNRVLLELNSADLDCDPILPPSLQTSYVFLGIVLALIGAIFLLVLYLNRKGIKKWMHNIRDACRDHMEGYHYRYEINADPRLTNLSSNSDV

[3] = molecular target: T1, human TPBG-hFc; assay: ELISA, coated human TPBG-hFc 1.0 ug/mL; control IgG 0.2 nM
[4] = molecular target: T2, human TPBG (full length, on cells); assay: FACS, HEK293 clone 293F-hTPBG 5G8
[5] = molecular target: T2, human TPBG (full length, on cells); assay: FACS, HEK293 clone 293F-hTPBG 4E1
[6] = molecular target: T2, human TPBG (full length, on cells); assay: FACS, HEK293 clone 293F-hTPBG 4A9
[7] = molecular target: T1, human TPBG-hFc; assay: ELISA, coated human TPBG-hFc 1.0 ug/mL; control IgG 20 nM
[8] = molecular target: T1, human TPBG-hFc; assay: ELISA, coated human TPBG-hFc 1.0 ug/mL; control IgG 0.0002 nM
[9] = molecular target: T1, human TPBG-hFc; assay: ELISA, coated human TPBG-hFc 1.0 ug/mL; control IgG 0.02 nM
[10] = molecular target: T2, human TPBG (full length, on cells); assay: FACS, HEK293 clone 293F-hTPBG 5A9
[11] = molecular target: T2, human TPBG (full length, on cells); assay: FACS, HEK293 clone 293F-hTPBG 4G6
[12] = molecular target: T2, human TPBG (full length, on cells); assay: FACS, HEK293 clone 293F-hTPBG 4A8
[13] = molecular target: T3, mouse TPBG (full length, on cells) (mouse, UniProt Q9Z0L0 32-426); assay: FACS on CHO-k1-mTPBG 3A3 cells
T3 construct: whole, on cells; On transfected CHO-K1 cells; also called mTPBG; CHO-K1-mTPBG
T3 sequence (looked up): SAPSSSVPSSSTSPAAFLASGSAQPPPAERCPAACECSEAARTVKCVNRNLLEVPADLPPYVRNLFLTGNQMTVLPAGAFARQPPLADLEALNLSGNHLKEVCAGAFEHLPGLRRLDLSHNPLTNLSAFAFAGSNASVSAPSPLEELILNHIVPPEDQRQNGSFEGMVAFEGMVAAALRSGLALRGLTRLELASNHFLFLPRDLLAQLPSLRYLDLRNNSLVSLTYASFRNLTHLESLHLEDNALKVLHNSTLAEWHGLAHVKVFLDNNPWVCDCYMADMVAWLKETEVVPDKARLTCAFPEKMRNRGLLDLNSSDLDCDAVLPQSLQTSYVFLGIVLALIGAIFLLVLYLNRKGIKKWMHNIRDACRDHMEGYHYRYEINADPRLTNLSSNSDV

[14] = molecular target: T2, human TPBG (full length, on cells); assay: FACS, HEK293 clone 293F-hTPBG 4B9
[15] = molecular target: T1, human TPBG-hFc; assay: ELISA, coated human TPBG-hFc 1.0 ug/mL; control IgG 200 nM
[16] = molecular target: T2, human TPBG (full length, on cells); assay: FACS, HEK293 clone 293F-hTPBG 5H6
[17] = molecular target: T2, human TPBG (full length, on cells); assay: FACS, HEK293 clone 293F-hTPBG 4C3
[18] = molecular target: cynomolgus monkey TPBG (full length, on cells) (cynomolgus monkey) (UniProt Q4R8Y9); assay: FACS on CHO-k1-cTPBG 3F13G4 cells
[19] = molecular target: T2, human TPBG (full length, on cells); assay: FACS, HEK293 clone 293F-hTPBG 4E1 (NO. 8)
[20] = molecular target: T2, human TPBG (full length, on cells); assay: FACS, HEK293 clone 293F-hTPBG 4C5
[21] = molecular target: T2, human TPBG (full length, on cells); assay: FACS, HEK293 clone 293F-hTPBG 4H12
[22] = molecular target: T2, human TPBG (full length, on cells); assay: FACS, HEK293 clone 293F-hTPBG 5A11
[23] = molecular target: T2, human TPBG (full length, on cells); assay: FACS, HEK293 clone 293F-hTPBG 5D4
[24] = molecular target: T2, human TPBG (full length, on cells); assay: FACS, HEK293 clone 293F-hTPBG 4F9
[25] = molecular target: T2, human TPBG (full length, on cells); assay: FACS, HEK293 clone 293F-hTPBG 5E6
[26] = molecular target: T2, human TPBG (full length, on cells); assay: FACS, HEK293 clone 293F-hTPBG 5G11
[27] = molecular target: T2, human TPBG (full length, on cells); assay: FACS, HEK293 clone 293F-hTPBG 4G1
[28] = molecular target: T2, human TPBG (full length, on cells); assay: FACS, HEK293 clone 293F-hTPBG 5E5
[29] = molecular target: T2, human TPBG (full length, on cells); assay: FACS, HEK293 clone 293F-hTPBG 5C12
[30] = molecular target: T1, human TPBG-hFc; assay: ELISA, coated human TPBG-hFc 1.0 ug/mL; control IgG 0.002 nM

mouse IgG control (antibody)
OD450nm [1]: 0.1 OD450nm
MFI [2]: 3.24 MFI
OD450nm [3]: 0.11 OD450nm
MFI [4]: 6 MFI
MFI [5]: 5.2 MFI
MFI [6]: 6.3 MFI
OD450nm [7]: 0.11 OD450nm
OD450nm [8]: 0.11 OD450nm
OD450nm [9]: 0.1 OD450nm
MFI [10]: 5 MFI
MFI [11]: 3.1 MFI
MFI [12]: 3.1 MFI
MFI [13]: 2.38 MFI
MFI [14]: 6.3 MFI
OD450nm [15]: 0.24 OD450nm
MFI [16]: 3 MFI
MFI [17]: 3.2 MFI
MFI [18]: 2.66 MFI
MFI [19]: 4.8 MFI
MFI [20]: 5.6 MFI
MFI [21]: 4 MFI
MFI [22]: 4.6 MFI
MFI [23]: 3 MFI
MFI [24]: 3.9 MFI
MFI [25]: 2.6 MFI
MFI [26]: 4.1 MFI
MFI [27]: 4 MFI
MFI [28]: 5.6 MFI
MFI [29]: 3.7 MFI
OD450nm [30]: 0.1 OD450nm

From US20210198377A1 (XDCEXPLORER SHANGHAI, published 2021)
